The target of this experiment is AjFER-D129A/E132A mutant (Apostichopus japonicus). Nature of the experiment: crystal structure; M3 at approx. 15 mg/mL in 25 mM Tris-HCl, pH 8.0, 150 mM NaCl; crystals from 0.05 M cadmium sulfate hydrate, 0.1 M HEPES, pH 7.5, 1.0 M sodium acetate trihydrate, 18 °C; assembly of subunits into the cage.

Usually stoichiometry N stands for a count of units in the complex or per binding partner. For the substance AjFER-D129A/E132A mutant, the stoichiometry N amounted to 24.

The record behind these values is paper PMC9785301.
